Assay results reported in patent US20210238283A1 (Y BIOLOGICS, published 2021).
Substitutions are numbered along the chain they refer to.

B1: LAG3-1E09_AM_2E04 (antibody, V domains shown)
VH: EVQLVESGGDLVKPGGSLRLSCAASGFSFNDHYMNWVRQAPGKGLEWVAYIDTSATYIYYADSVKGRFTISRDNAKNSLYLQMNSLRAEDTAVYYCARDNWGSLDYWGQGTLVTVSS
VL: DIQMTQSPSSLSASVGDRVTIICRASQSISNYLNWYQQEPGKAPKLLIYDASNLESGVPSRFSGSGSGTDFTLTISSLQPEDFATYYCQQSYSTPYTFGQGTKVEIK
notes: Tested as full IgG
B2: LAG3-1E09_FR_1A06 (antibody, V domains shown)
VH: B1 VH with D10G, N30S
VL: DIQMTQSPGTLSMSPGEKATLSCRASQTVTTNLAWYQQKSGQAPRLLIYDASTRATGVPDRFSGSGSGTDFTLTISRLEPEDFAVYYCQQYGSSPYTFGQGTKLDIK
notes: Tested as full IgG
B3: LAG3-1E09_FR_1E10 (antibody, V domains shown)
VH: B1 VH with D10G, N30S
VL: DIQMTQSPSSLSASVGDRVIITCQASQDITNYLNWYQQKPGKAPKLLIYDASNLETGVPSRFTGSGSGTDFTFTISSLQPEDIATYHCQQSYSTPPYTFGQGTKLEIK
notes: Tested as full IgG
B4: LAG3-1E09_AM_1E09 (antibody, V domains shown)
VH: B1 VH with N30S, V37I
VL: DIQMTQSPATLSVSPGERATLSCRASQSVMNNLAWYQQKPGQAPRLLIYDASNRATGIPARFSGSGSGTDFTLTISRLEPEDFAVYYCEQYVRSPYTFGQGTKLDIK
notes: Tested as full IgG
B5: LAG3-1E09_FR_1E09 (antibody, V domains shown)
VH: B1 VH with D10G, N30S, V37I
VL: DIQMTQSPSSLSASVGDRVTITCQASQDISNYLNWYQQKPGKAPNLLIYDASNLETGVPSRFSGSGSGTDFALTISSLQPEDFATYYCQQSDSTPITFGQGTRLDIK
notes: Tested as full IgG
B6: LAG3-1E09_LS_1A10 (antibody, V domains shown)
VH: B1 VH with N30S, V37I
VL: not shown
notes: Tested as full IgG
B7: LAG3-1E09_LS_1H04 (antibody, V domains shown)
VH: B1 VH with N30S, V37I
VL: DIQMTQSPSSLSASAGDRVTITCQASQDIRNSLSWYQQKPGKAPKLLIYDASNLETGVPSRFSGSGSGTYFTFTISSLQPEDFATYYCQQYDNVPVTFGGGTKLEIK
notes: Tested as full IgG
B8: LAG3-1E09_AM_1H07 (antibody, V domains shown)
VH: B1 VH with K13Q
VL: DIQMTQSPSSLSASVGDRVTITCQASQDISNYLNWYQQKPGKAPKLLIYEASSLESGVPSRFSGSGSGTEFTLTINSLQPEDFATYYCQQSYSTPFAFGPGTKVEIK
notes: Tested as full IgG
B9: LAG3-1E09_AM_1B03 (antibody, V domains shown)
VH: B1 VH with K13Q, V37I
VL: DIQMTQSPSSLSASVGDRVTMTCQASQDVSNYLNWYQQKPGKAPKLLIYDASNLEIGVPSRFSGSGSGTDFTFTISSLQPEDTATYYCQQYDHLPPYTFGQGTKLEIK
notes: Tested as full IgG

The binders below were run against T1, human LAG-3 overexpressed on cells (human, UniProt P18627 23-525) (assay: flow cytometry, HEK293E cells overexpressing LAG-3, antibody 2 µg/ml).
T1 construct: whole, on cells; also called HEK293E-hLAG3; hLAG3 (Human)
T1 sequence (looked up): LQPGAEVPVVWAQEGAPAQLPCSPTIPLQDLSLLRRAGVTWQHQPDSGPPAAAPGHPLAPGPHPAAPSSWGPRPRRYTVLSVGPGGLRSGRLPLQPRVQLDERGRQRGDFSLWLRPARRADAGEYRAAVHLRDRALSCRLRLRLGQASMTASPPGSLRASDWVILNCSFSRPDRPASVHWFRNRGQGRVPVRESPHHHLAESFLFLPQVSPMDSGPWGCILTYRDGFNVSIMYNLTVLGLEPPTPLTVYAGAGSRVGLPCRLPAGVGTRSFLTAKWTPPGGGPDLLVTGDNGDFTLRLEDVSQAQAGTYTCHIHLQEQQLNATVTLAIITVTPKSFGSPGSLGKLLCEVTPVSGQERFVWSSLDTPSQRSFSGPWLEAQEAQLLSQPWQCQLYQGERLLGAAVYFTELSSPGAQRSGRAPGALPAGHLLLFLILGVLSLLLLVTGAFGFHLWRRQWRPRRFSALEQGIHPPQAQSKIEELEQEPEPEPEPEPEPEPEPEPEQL
Experimental: (§1) After that, the cells were washed three times with PBS containing 2% FBS and then subjected to the reaction for 30 minutes at 4° C. with anti-human IgG antibody (#FI-3000, Vectorlabs) linked with FITC fluorescent. The cells were washed by the same washing process as above followed by suspension in 0.2 ml PBS containing 2% FBS. The cells were then analyzed by FACSCanto II flow cytometer.

**Q.** Does B1 bind?
**A.** binds

**Q.** Does B2 bind?
**A.** binds

**Q.** Does B3 bind?
**A.** binds

**Q.** Does B4 bind?
**A.** binds

**Q.** Does B5 bind?
**A.** binds

**Q.** Does B6 bind?
**A.** binds

These binders were tested against T2, mouse LAG-3 overexpressed on HEK293E cells (mouse, UniProt Q61790 24-521) in the same assay as above.
T2 construct: whole, on cells; also called HEK293E-mLAG3; mLAG3 (Mouse)
T2 sequence (looked up): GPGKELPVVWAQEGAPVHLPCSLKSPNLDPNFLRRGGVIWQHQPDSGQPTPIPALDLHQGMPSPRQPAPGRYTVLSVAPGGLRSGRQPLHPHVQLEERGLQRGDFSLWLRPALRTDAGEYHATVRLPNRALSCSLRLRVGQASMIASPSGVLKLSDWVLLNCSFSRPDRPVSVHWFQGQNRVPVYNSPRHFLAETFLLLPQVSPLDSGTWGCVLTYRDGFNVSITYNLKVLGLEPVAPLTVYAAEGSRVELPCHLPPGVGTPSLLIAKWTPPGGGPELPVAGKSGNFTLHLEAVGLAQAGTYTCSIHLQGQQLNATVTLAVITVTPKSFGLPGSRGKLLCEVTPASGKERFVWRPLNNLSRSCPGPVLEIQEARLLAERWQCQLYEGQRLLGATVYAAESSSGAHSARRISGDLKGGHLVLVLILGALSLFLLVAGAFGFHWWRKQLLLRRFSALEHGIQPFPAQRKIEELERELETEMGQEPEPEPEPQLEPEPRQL
Experimental: as §1

**Q.** Does B3 bind?
**A.** binds

The binders below were run against T3, recombinant human LAG-3-his (#16498-H08H, Sino Biological Inc.) (human, UniProt P18627 23-450) (assay: scFv phage ELISA on coated antigen, A490).
T3 construct: Bought; also called LAG-3-His (WT); not shown: His tag at the carboxy terminal
T3 sequence (looked up): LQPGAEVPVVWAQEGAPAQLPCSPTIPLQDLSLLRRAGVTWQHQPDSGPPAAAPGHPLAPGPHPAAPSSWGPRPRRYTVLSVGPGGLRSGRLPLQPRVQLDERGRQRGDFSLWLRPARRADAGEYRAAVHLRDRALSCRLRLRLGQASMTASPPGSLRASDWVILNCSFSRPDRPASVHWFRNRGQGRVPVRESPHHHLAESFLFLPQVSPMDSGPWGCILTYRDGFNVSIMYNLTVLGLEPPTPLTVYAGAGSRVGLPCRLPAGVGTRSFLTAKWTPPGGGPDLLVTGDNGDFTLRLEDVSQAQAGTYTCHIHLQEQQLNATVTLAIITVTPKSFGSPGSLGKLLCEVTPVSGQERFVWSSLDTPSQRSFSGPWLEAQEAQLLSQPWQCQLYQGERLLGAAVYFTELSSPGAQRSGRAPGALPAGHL

**Q.** Does B3 bind?
**A.** binds

**Q.** Does B5 bind?
**A.** binds

These binders were tested against T2, mouse LAG-3 overexpressed on HEK293E … (assay: flow cytometry, HEK293E cells overexpressing mouse LAG-3).
Experimental: as §1

**Q.** Does B1 bind?
**A.** no binding (tested: 2 µg/ml)

**Q.** Does B2 bind?
**A.** no binding (tested: 2 µg/ml)

**Q.** Does B7 bind?
**A.** no binding (tested: 2 µg/ml)

**Q.** Does B8 bind?
**A.** no binding (tested: 2 µg/ml)

**Q.** Does B4 bind?
**A.** no binding (tested: 2 µg/ml)

**Q.** Does B9 bind?
**A.** no binding (tested: 2 µg/ml)

**Q.** Does B5 bind?
**A.** no binding (tested: 2 µg/ml)

**Q.** Does B6 bind?
**A.** no binding (tested: 2 µg/ml)

What follows are binders tested against T1, human LAG-3 overexpressed on cells (assay: cell-based or functional assay).

**Q.** With B7 as the binder, how does the “EC50 (µg/ml), LAG3/MHC class II Blockade bioassay” value read?
**A.** 0.284 µg/mL

**Q.** For B8, which “EC50 (µg/ml), LAG3/MHC class II Blockade bioassay” value is on record?
**A.** 0.448 µg/mL

**Q.** B9 was tested. Which “EC50 (µg/ml), LAG3/MHC class II Blockade bioassay” value did it give?
**A.** 1.82 µg/mL

Biological target: T3, recombinant human LAG-3-his …
Assay: scFv phage ELISA on coated antigen, A490
Remark: another data set of the same source

**Q.** Does B1 bind?
**A.** binds
